From patent US20220153796A1 come the findings set out here.

This assay deals with HLA-B*08 (human). Briefly: UV peptide exchange ELISA.
As to ILKVKVGL, the peptide exchange yield was more than 75%.

In turn, LPPKKFVL registered a peptide exchange yield of more than 75%.

As to HLLQKQTSI, the peptide exchange yield was in the range of 50 to 75%.

Turning to ALKLRVAVL, the peptide exchange yield was more than 75%.

In the case of VASPKHCVL, the peptide exchange yield lay in the range of 50 to 75%.

For EAAIRSVEL, the peptide exchange yield was more than 75%.

ELKKLYCQI gave a peptide exchange yield of more than 75%.

YMHKLLVL: the peptide exchange yield was more than 75%.

The molecule DIYQRALNL returned a peptide exchange yield of more than 75%.

Consider EIRIRVVQM, for which the peptide exchange yield was more than 75%.

In turn, ILLPRTVSL had a peptide exchange yield of more than 75%.

In the case of ELKKKEYEEL, the peptide exchange yield is more than 75%.

DAIQRKYSC gave a peptide exchange yield of 50 to 75%.

In turn, AIISRLVAL registered a peptide exchange yield of more than 75%.

Consider MLKQKVEEL, for which the peptide exchange yield is more than 75%.

For the molecule EAMLRNKEL, the peptide exchange yield was more than 75%.

VIKEKALTL had a peptide exchange yield of 50 to 75%.

As to LPFPKFTV, the peptide exchange yield is more than 75%.

Molecule LVKVKVLL had a peptide exchange yield of more than 75%.
